Biological target: T1, human Kir2.1 channel, wild type (Kir2.1-WT) (human), P63252
T1 chain: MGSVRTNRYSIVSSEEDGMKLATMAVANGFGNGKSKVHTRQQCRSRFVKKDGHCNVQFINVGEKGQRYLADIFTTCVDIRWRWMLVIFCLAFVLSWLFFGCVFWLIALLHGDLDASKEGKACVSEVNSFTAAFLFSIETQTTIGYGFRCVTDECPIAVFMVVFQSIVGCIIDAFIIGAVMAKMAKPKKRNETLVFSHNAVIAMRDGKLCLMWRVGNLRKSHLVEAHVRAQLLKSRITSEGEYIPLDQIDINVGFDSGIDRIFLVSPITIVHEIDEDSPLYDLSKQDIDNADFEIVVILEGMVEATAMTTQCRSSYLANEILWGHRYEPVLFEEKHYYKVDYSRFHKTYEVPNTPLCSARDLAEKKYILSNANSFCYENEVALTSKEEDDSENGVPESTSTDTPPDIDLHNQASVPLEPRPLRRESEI
Test: SEC-MALLS
Conditions: remark: other sources report otherwise

stoichiometry N: 4
B1: human Kir2.1 channel, wild type (Kir2.1-WT), P63252 1-427 (natural protein)
chain: MGSVRTNRYSIVSSEEDGMKLATMAVANGFGNGKSKVHTRQQCRSRFVKKDGHCNVQFINVGEKGQRYLADIFTTCVDIRWRWMLVIFCLAFVLSWLFFGCVFWLIALLHGDLDASKEGKACVSEVNSFTAAFLFSIETQTTIGYGFRCVTDECPIAVFMVVFQSIVGCIIDAFIIGAVMAKMAKPKKRNETLVFSHNAVIAMRDGKLCLMWRVGNLRKSHLVEAHVRAQLLKSRITSEGEYIPLDQIDINVGFDSGIDRIFLVSPITIVHEIDEDSPLYDLSKQDIDNADFEIVVILEGMVEATAMTTQCRSSYLANEILWGHRYEPVLFEEKHYYKVDYSRFHKTYEVPNTPLCSARDLAEKKYILSNANSFCYENEVALTSKEEDDSENGVPESTSTDTPPDIDLHNQASVPLEPRPLRRESEI
